This passage reports reverse-splicing fitness results from the RNAGym collection of RNA variant scans (doi:10.1093/molbev/msab373).

B1: Azoarcus group I ribozyme (parent)
chain: GUGCCUUGCGCCGGGAAACCACGCAAGGGAUGGUGUCAAAUUCGGCGAAACCUAAGCGCCCGCCCGGGCGUAUGGCAACGCCGAGCCAAGCUUCGGCGCCUGCGCCGAUGAAGGUGUAGAGACUAGACGGCACCCACCUAAGGCAAACGCUAUGGUGAAGGCAUAGUCCAGGGAGUGGCGAAAGUCACACAAACCGG

The data set covers variants of B1. The experiment in a line: reverse-splicing fitness (ratio to wild type); higher = more active; in vitro selection; Mg2+ level not given. Summed up:
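An in vitro group I ribozyme library with randomized positions was T7-transcribed and gel-purified. In triplicate, 10 pmol RNA in EPPS pH 7.5 was reacted with 50 pmoles of a 30-nt RNA substrate for 1 h at 37 °C across several added MgCl2 levels (1–48 mM), then stopped with EDTA. Products were reverse transcribed from a substrate-complementary primer, PCR-amplified and sequenced (HiSeq 4000). Fitness is a variant's read proportion after selection over that before, normalised to wild type.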
Regarding GUGCCUUGCGCCGGGAAACCACGCAAGGGAUGGUGUCAAAUUCGGCGAAACCUAAGCGCCCGCCCGGGCGUAUGGCAACGCUGAGCCAAGCUUCGGCGCCUGCGCCGAUGAAGGUGUAGCGACUAGACGGCACCCACCUAAGGCUAACGGUAUGGUGAAGGCAUAGUCAAGGGAGUGGCGAAAGUCACACAAACCGG, the reverse-splicing fitness was 0.00827.
For GUGCCUUGCGCCGGGAAACCACGCAAGGGAUGGUGUCAAAUUCGGCGAAACCUAAGCGCCCGCCCGGGCGUAUGGCAACGCUGAGCCAAGCUUCGGCGCCUGCGCCGAUGAAGGUGUAGCGACUAGACGGCACCCACCUAAGGCUAACGGUAUGGUGAAGGCAUAGUCUAGGGAGUGGCGAAAGUCACACAAACCGG, the reverse-splicing fitness came to 0.00863.
Under GUGCCUUGCGCCGGGAAACCACGCAAGGGAUGGUGUCAAAUUCGGCGAAACCUAAGCGCCCGCCCGGGCGUAUGGCAACGCUGAGCCAAGCUUCGGCGCCUGCGCCGAUGAAGGUGUAGCGACUAGACGGCACCCACCUAAGGCUAACGGUAUGGUGAAGGCAUAGUCGAGGGAGUGGCGAAAGUCACACAAACCGG stands 0.0059.
For GUGCCUUGCGCCGGGAAACCACGCAAGGGAUGGUGUCAAAUUCGGCGAAACCUAAGCGCCCGCCCGGGCGUAUGGCAACGCUGAGCCAAGCUUCGGCGCCUGCGCCGAUGAAGGUGUAGCGACUAGACGGCACCCACCUAAGGCUAACGUUAUGGUGAAGGCAUAGUCCAGGGAGUGGCGAAAGUCACACAAACCGG, the reverse-splicing fitness is 0.109.
Under GUGCCUUGCGCCGGGAAACCACGCAAGGGAUGGUGUCAAAUUCGGCGAAACCUAAGCGCCCGCCCGGGCGUAUGGCAACGCUGAGCCAAGCUUCGGCGCCUGCGCCGAUGAAGGUGUAGCGACUAGACGGCACCCACCUAAGGCUAACGGUAUGGUGAAGGCAUAGUCCAGGGAGUGGCGAAAGUCACACAAACCGG stands 0.0217; under GUGCCUUGCGCCGGGAAACCACGCAAGGGAUGGUGUCAAAUUCGGCGAAACCUAAGCGCCCGCCCGGGCGUAUGGCAACGCUGAGCCAAGCUUCGGCGCCUGCGCCGAUGAAGGUGUAGCGACUAGACGGCACCCACCUAAGGCUAACGAUAUGGUGAAGGCAUAGUCUAGGGAGGGGCGAAAGUCACACAAACCGG, 0.00413.
Under GUGCCUUGCGCCGGGAAACCACGCAAGGGAUGGUGUCAAAUUCGGCGAAACCUAAGCGCCCGCCCGGGCGUAUGGCAACGCUGAGCCAAGCUUCGGCGCCUGCGCCGAUGAAGGUGUAGCGACUAGACGGCACCCACCUAAGGCUAACGAUAUGGUGAAGGCAUAGUCUAGGGAGAGGCGAAAGUCACACAAACCGG stands 0.0155.
Take GUGCCUUGCGCCGGGAAACCACGCAAGGGAUGGUGUCAAAUUCGGCGAAACCUAAGCGCCCGCCCGGGCGUAUGGCAACGCUGAGCCAAGCUUCGGCGCCUGCGCCGAUGAAGGUGUAGCGACUAGACGGCACCCACCUAAGGCUAACGAUAUGGUGAAGGCAUAGUCUAGGGAGCGGCGAAAGUCACACAAACCGG: the reverse-splicing fitness stood at 0.0164.
Under GUGCCUUGCGCCGGGAAACCACGCAAGGGAUGGUGUCAAAUUCGGCGAAACCUAAGCGCCCGCCCGGGCGUAUGGCAACGCUGAGCCAAGCUUCGGCGCCUGCGCCGAUGAAGGUGUAGCGACUAGACGGCACCCACCUAAGGCUAACGAUAUGGUGAAGGCAUAGUCCAGGGAGCGGCGAAAGUCACACAAACCGG stands 0.0137; under GUGCCUUGCGCCGGGAAACCACGCAAGGGAUGGUGUCAAAUUCGGCGAAACCUAAGCGCCCGCCCGGGCGUAUGGCAACGCUGAGCCAAGCUUCGGCGCCUGCGCCGAUGAAGGUGUAGCGACUAGACGGCACCCACCUAAGGCUAACGAUAUGGUGAAGGCAUAGUCCAGGGAGAGGCGAAAGUCACACAAACCGG, 0.0114; under GUGCCUUGCGCCGGGAAACCACGCAAGGGAUGGUGUCAAAUUCGGCGAAACCUAAGCGCCCGCCCGGGCGUAUGGCAACGCUGAGCCAAGCUUCGGCGCCUGCGCCGAUGAAGGUGUAGCGACUAGACGGCACCCACCUAAGGCUAACGAUAUGGUGAAGGCAUAGUCCAGGGAGGGGCGAAAGUCACACAAACCGG, 0.00478.
Under GUGCCUUGCGCCGGGAAACCACGCAAGGGAUGGUGUCAAAUUCGGCGAAACCUAAGCGCCCGCCCGGGCGUAUGGCAACGCUGAGCCAAGCUUCGGCGCCUGCGCCGAUGAAGGUGUAGCGACUAGACGGCACCCACCUAAGGCUAACGUUAUGGUGAAGGCAUAGUCAAGGGAGUGGCGAAAGUCACACAAACCGG stands 0.0082; under GUGCCUUGCGCCGGGAAACCACGCAAGGGAUGGUGUCAAAUUCGGCGAAACCUAAGCGCCCGCCCGGGCGUAUGGCAACGCUGAGCCAAGCUUCGGCGCCUGCGCCGAUGAAGGUGUAGCGACUAGACGGCACCCACCUAAGGCUAACGAUAUGGUGAAGGCAUAGUCGAGGGAGGGGCGAAAGUCACACAAACCGG, 0.00397.
With GUGCCUUGCGCCGGGAAACCACGCAAGGGAUGGUGUCAAAUUCGGCGAAACCUAAGCGCCCGCCCGGGCGUAUGGCAACGCUGAGCCAAGCUUCGGCGCCUGCGCCGAUGAAGGUGUAGCGACUAGACGGCACCCACCUAAGGCUAACGAUAUGGUGAAGGCAUAGUCGAGGGAGCGGCGAAAGUCACACAAACCGG, the reverse-splicing fitness stood at 0.0081.
Then GUGCCUUGCGCCGGGAAACCACGCAAGGGAUGGUGUCAAAUUCGGCGAAACCUAAGCGCCCGCCCGGGCGUAUGGCAACGCUGAGCCAAGCUUCGGCGCCUGCGCCGAUGAAGGUGUAGCGACUAGACGGCACCCACCUAAGGCUAACGGUAUGGUGAAGGCAUAGUCUAGGGAGCGGCGAAAGUCACACAAACCGG, with 0.0116.
